In IntAct's records for PubMed 22863753:

B1: NLR family CARD domain-containing protein 3 (Homo sapiens), Q7RTR2 (parent)
chain: MRKQEVRTGREAGQGHGTGSPAEQVKALMDLLAGKGSQGSQAPQALDRTPDAPLGPCSNDSRIQRHRKALLSKVGGGPELGGPWHRLASLLLVEGLTDLQLREHDFTQVEATRGGGHPARTVALDRLFLPLSRVSVPPRVSITIGVAGMGKTTLVRHFVRLWAHGQVGKDFSLVLPLTFRDLNTHEKLCADRLICSVFPHVGEPSLAVAVPARALLILDGLDECRTPLDFSNTVACTDPKKEIPVDHLITNIIRGNLFPEVSIWITSRPSASGQIPGGLVDRMTEIRGFNEEEIKVCLEQMFPEDQALLGWMLSQVQADRALYLMCTVPAFCRLTGMALGHLWRSRTGPQDAELWPPRTLCELYSWYFRMALSGEGQEKGKASPRIEQVAHGGRKMVGTLGRLAFHGLLKKKYVFYEQDMKAFGVDLALLQGAPCSCFLQREETLASSVAYCFTHLSLQEFVAAAYYYGASRRAIFDLFTESGVSWPRLGFLTHFRSAAQRAMQAEDGRLDVFLRFLSGLLSPRVNALLAGSLLAQGEHQAYRTQVAELLQGCLRPDAAVCARAINVLHCLHELQHTELARSVEEAMESGALARLTGPAHRAALAYLLQVSDACAQEANLSLSLSQGVLQSLLPQLLYCRKLRLDTNQFQDPVMELLGSVLSGKDCRIQKISLAENQISNKGAKALARSLLVNRSLTSLDLRGNSIGPQGAKALADALKINRTLTSLSLQGNTVRDDGARSMAEALASNRTLSMLHLQKNSIGPMGAQRMADALKQNRSLKELMFSSNSIGDGGAKALAEALKVNQGLESLDLQSNSISDAGVAALMGALCTNQTLLSLSLRENSISPEGAQAIAHALCANSTLKNLDLTANLLHDQGARAIAVAVRENRTLTSLHLQWNFIQAGAAQALGQALQLNRSLTSLDLQENAIGDDGACAVARALKVNTALTALYLQVASIGASGAQVLGEALAVNRTLEILDLRGNAIGVAGAKALANALKVNSSLRRLNLQENSLGMDGAICIATALSGNHRLQHINLQGNHIGDSGARMISEAIKTNAPTCTVEM
partner: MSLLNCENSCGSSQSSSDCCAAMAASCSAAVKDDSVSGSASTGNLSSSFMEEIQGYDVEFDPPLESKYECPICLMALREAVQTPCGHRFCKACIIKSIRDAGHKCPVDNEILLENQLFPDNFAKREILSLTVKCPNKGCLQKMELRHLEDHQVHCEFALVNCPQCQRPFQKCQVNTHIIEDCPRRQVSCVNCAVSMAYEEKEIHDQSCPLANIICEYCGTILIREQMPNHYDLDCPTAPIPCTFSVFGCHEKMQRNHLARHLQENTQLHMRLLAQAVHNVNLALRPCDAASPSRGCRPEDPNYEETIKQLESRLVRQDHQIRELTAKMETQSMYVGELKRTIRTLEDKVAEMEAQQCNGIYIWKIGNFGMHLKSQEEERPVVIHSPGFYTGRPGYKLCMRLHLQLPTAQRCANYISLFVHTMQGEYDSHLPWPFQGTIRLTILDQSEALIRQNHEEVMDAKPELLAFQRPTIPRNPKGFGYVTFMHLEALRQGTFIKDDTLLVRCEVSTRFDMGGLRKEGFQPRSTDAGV

Variants of: B1
Settings: with traf6_mouse Traf6, P70196

| Variant | effect of a mutation on the interaction |
| --- | --- |
| S457A;L458A;Q459A;E460A | decreasing interaction |
